Measurements published in patent US20220332758A1, “PEPTIDE-BASED COMPOSITIONS AND METHODS FOR TREATING ALZHEIMER'S DISEASE” (Board of Regents, The Universityof Texas System, priority 2019, published 2022).
Where no end group is shown, it is not given here. [ ]: non-standard residue; d: D form. Aib = CC(C)(N)C(=O)O

Molecular target: human housekeeping core (20S) proteasome purified from erythrocytes (human), P60900
Test: cell-based or functional assay

For GRKKRRQ[Aib]GQRRKKRG [Tat5-8,9 Aib], which AC50, ChT-L activity (Suc-LLVY-MCA) is on record?
Its AC50, ChT-L activity (Suc-LLVY-MCA) is 183 nM.

What about the Max activation fold, ChT-L activity of the same binder?
Its Max activation fold, ChT-L activity is 8.9 fold.
